Legend:
[1] = test system: C-PAE cells; test: Competitive proliferation assay with anti-Tum-4 antibody; format: cell-based, bovine; conditions: 1.5 μg/ml
Method: To determine if Turn-1 's inhibition of endothelial cell proliferation could be nullified by anti-Tum-4 antibody, a competitive proliferation assay was performed as described in Example 26, above. Tum-1 was preincubated with anti-Tum-4 antibody for the purpose of at least partially blocking the αvβ3 integrin binding site. It was then used in endothelial cell proliferation assays.
The results are shown in FIGS. 38A and 38B, which are histograms showing proliferation of C-PAE cells (y-axis) treated with 1.5 μg/ml Tum-1 (FIG. 38A) or Tum-2 (FIG. 38B) that had been preincubated with anti-Tum-4 antibody (1:100, 1:200, 1:500 dilution) (x-axis). Each column represents the mean ±the standard error of the mean for triplicate wells. The experiments were repeated three times. Asterisks indicate P<0.05 by one-tailed Student's t-test.

[2] = test system: HEK 293 cells; test: Proliferation of control cells, 3H-thymidine incorporation; format: cell-based, human; conditions: Canstatin doses up to 40 mg/ml
Method: Bovine calf […] endothelial (C-PAE) cells were grown to confluence in DMEM with 10% fetal calf serum (FCS) and kept contact inhibited for 48 hours. Cells were harvested by trypsinization (Life Technologies/Gibco BRL, Gaithersberg, Md., USA) at 37° C. for 5 minutes. A suspension of 12,500 cells in DMEM with 0.5% FCS was added to each well of a 24-well plate coated with 10 μg/ml fibronectin. The cells were incubated for 24 hours at 37° C. C. with 5% CO2 and 95% humidity. Medium was removed, and replaced with DMEM containing 0.5% FCS (unstimulated) or 10% FCS (stimulated and treated cells). 786-O, PC-3 and HEK 293 cells served as controls and were also grown to confluency, trypsinized and plated in the same manner. Cells were treated with concentrations of Canstatin or endostatin ranging from 0.025 to 40 mg/ml in triplicate. In thymidine incorporation experiments, all wells received […] of ^3H-thymidine at the time of treatment. After 24 hours, medium was removed and the wells were washed 3 times with PBS. Radioactivity was extracted with 1N NaOH and added to a scintillation vial containing 4 ml of ScintiVerse II (Fisher Scientific, Pittsburgh, Pa., USA) solution. Thymidine incorporation was measured using a scintillation counter.

[3] = test system: FLIP; test: FLIP protein levels in HUVEC; format: cell-based, human; conditions: one hour after treatment, persisting up to 24 hours
Method: FLIP Protein Levels. HUVEC cells were treated as for the ERK assay, supra, and harvested at 0, 1, 3, 6, and 24 hours. FLIP protein levels in serum treated HUVEC cells and serum+Canstatin-treated HUVEC cells were quantified using anti-FLIP antibody (Sata, M. et al., 1998, J. Biol. Chem. 273:33103-6) and normalized for protein loading using levels of vinculin and plotted as a percentage of the 0 hour time points.

[4] = test system: HUVECs; test: Total protein synthesis, 35S-methionine incorporation; format: cell-based, human; conditions: 4.5 μM; 24 hours of serum stimulation; rapamycin 100 ng/ml
Method: Primary human renal epithelial cells (HRE) were purchased from Clonetics (San Diego, Calif., USA) and were maintained in REGM (Clonetics Corp.). Other cell lines were obtained and maintained as described above. Cells were serum-starved for 24 hrs (0.5% FCS), stimulated with 10% FCS in the presence of T3 peptide, Tumstatin-44-131, endostatin or rapamycin for 12-24 hours. After pre-incubation of cells in methionine-free media for 1 hour, cells were labeled with ^35S-methionine for 1 hour and incorporation of radioactivity into trichloracetic acid precipitates was analyzed (Sudhakar, A. et al., 2000, Biochem. 39:12929-38; Maeshima, Y. et al., 1996, J. Amer. Soc. Nephrol. 7:2219-29). ANOVA with a one-tailed Student's t test was used to identify significant differences in multiple comparisons in the present study. A level of P<0.05 was considered statistically significant.

[5] = test system: HPE cells; test: Proliferation, methylene blue staining; format: cell-based, human
Method: In the methylene-blue staining method, 7000 cells were plated into each well of a 96-well plate, and treated as described above. Cells were then counted using the method of Oliver et al. (1989, J. Cell. Sci. 92:513-8). After 48 hours of treatment, all wells were washed with 100 μl of PBS, and the cells fixed with 10% formalin in neutral-buffered saline (Sigma Chemical Co., St. Louis, Mo., USA). The cells were then stained with 1% methylene blue (Sigma) in 0.01M borate buffer, pH 8.5. Wells were washed with 0.01M borate buffer, and the methylene blue extracted from the cells with 0.1N HCl/ethanol, and the absorbance measured in a microplate reader (Bio-Rad, Hercules, Calif., USA) at 655 nm. Polymyxin B (Sigma) at a final concentration of 5 μg/ml was used to inactivate endotoxin (Liu, S. et al., 1997, Clin. Biochem. 30:455-63).
Endothelial cell proliferation was performed by ^3H-thymidine incorporation or methylene blue staining as described above in Example 25. C-PAE cells (passages 2-4) were grown to confluence and kept contact inhibited for 48 hours. 786-O, PC-3 and WM-164 cells were used as non-endothelial controls, and were cultured as described in Example 25, above. HPE (human primary prostate epithelial cells) were cultured in keratinocyte-SFM supplemented with bovine pituitary and recombinant human EGF (Life Technologies/Gibco BRL, Gaithersburg, Md., USA). […]

B1: Tum-1: residues 54 to 244 of Tumstatin, lacking the N-terminal 53 amino acids (SEQ ID NO:22) (protein)
chain: QRAHGQDLGTLGSCLQRFTTMPFLFCNVNDVCNFASRNDYSYWLSTPALMPMNMAPITGRALEPYISRCTVCEGPAIAIAVHSQTTDIPPCPHGWISLWKGFSFIMFTSAGSEGTGQALASPGSCLEEFRASPFLECHGRGTCNYYSNSYSFWLASLNPERMFRKPIPSTVKAGELEKIISRCQVCMKKRH
modifications: Tum-1 (Tumstatin N-53) (amino acids 54-244 of SEQ ID NO10)
For B1, the “anti-proliferative effect after pre-incubation with anti-Tum-4 antibody” value [1] was “not altered”.

B2: Tum-2: residues 1 to 132 of Tumstatin (SEQ ID NO:23) (protein)
chain: GLKGKRGDSGSPATWTTRGFVFTRHSQTTAIPSCPEGTVPLYSGFSFLFVQGNQRAHGQDLGTLGSCLQRFTTMPFLFCNVNDVCNFASRNDYSYWLSTPALMPMNMAPITGRALEPYISRCTVCEGPAIAI
modifications: Tum-2 (amino acids 1-132 of SEQ ID NO10)
For B2, the “anti-proliferative effect after pre-incubation with anti-Tum-4 antibody” value [1] was “not affected”.

B3: Canstatin: NC1 domain of the α2 chain of Type IV collagen (SEQ ID NO:6) (protein, listed as Homo sapiens)
chain: VSIGYLLVKHSQTDQEPMCPVGMNKLWSGYSLLYFEGQEKAHNQDLGLAGSCLARFSTMPFLYCNPGDVCYYASRNDKSYWLSTTAPLPMMPVAEDEIKPYISRCSVCEAPAIAIAVHSQDVSIPHCPAGWRSLWIGYSFLMHTAAGDEGGGQSLVSPGSCLEDFRATPFIECNGGRGTCHYYANKYSFWLTTIPEQSFQGSPSADTLKAGLIRTHISRCQVCMKNL
For B3, the effect on proliferation [2] was “No significant effect” and the FLIP protein levels [3] was “decrease in FLIP protein levels”.

B4: endostatin: tumor associated angiogenesis inhibitor used as comparator (protein, UniProt P39060 1572-1754, looked up)
Endostatin: HSHRDFQPVLHLVALNSPLSGGMRGIRGADFQCFQQARAVGLAGTFRAFLSSRLQDLYSIVRRADRAAVPIVNLKDELLFPSWEALFSGSEGPLKPGARIFSFDGKDVLRHPTWPQKSVWHGSDPNGRRLTESYCETWRTEAPSATGQASSLLGGRLLGQSAASCHHAYIVLCIENSFMTASK
modifications: Endostatin
In the case of B4, the “inhibition of protein synthesis” value [4] is reported as “did not inhibit protein synthesis”.

B5: Tumstatin: NC1 domain of the α3 chain of type IV collagen, residues 1-244 (SEQ ID NO:10) (protein, listed as Homo sapiens)
chain: GLKGKRGDSGSPATWTTRGFVFTRHSQTTAIPSCPEGTVPLYSGFSFLFVQGNQRAHGQDLGTLGSCLQRFTTMPFLFCNVNDVCNFASRNDYSYWLSTPALMPMNMAPITGRALEPYISRCTVCEGPAIAIAVHSQTTDIPPCPHGWISLWKGFSFIMFTSAGSEGTGQALASPGSCLEEFRASPFLECHGRGTCNYYSNSYSFWLASLNPERMFRKPIPSTVKAGELEKIISRCQVCMKKRH
In the case of B5, the “effect on proliferation of HPE cells” value [5] is reported as “no inhibitory effects”.

— patent US7387779B2, “Anti-angiogenic proteins and fragments and methods of use thereof” (Beth Israel Deaconess Medical Center, priority 1998, dated 2008)
